Assay: yeast display, Sf9 membrane polyspecificity reagent, FACS + sequencing; frameworks hold sequencing errors
How it was run: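 A synthetic nanobody library was expressed on Saccharomyces cerevisiae BJ5465 by galactose induction for 36–48 hours. The library was stained for 1 hour at 4 °C with 10% biotinylated, detergent-solubilized Sf9 membrane reagent and enriched with streptavidin microbeads before FACS. Low and high (top ~1%) gates were set on anti-HA fluorescence for expression and streptavidin fluorescence for reagent binding, and each polyreactivity label reflects the gate of origin.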

| Sequence | polyreactivity (PSR sort gate) |
| --- | --- |
| QVQLVESGGGLVQAGGSLRLSCAASGSIFGYYTMGWYRPAPGKERELVAAITSGGSTNYADSVKGRFTISRDNAKNTVYLQMNSLKPEDTAVYYCAKVSYYPWRYDYWGQGTQVTVSS | low polyreactivity |
| QVQLVESGGGLVQAGGSLRLSCAASGSIFGYYTMGWYRQAPGKERELVAAISQGGARTYYADSVKGRFTISRDNAKNTVYLQMNSLKPEDTAVYYCNAVSPAGYWFDYWGQGTQVTVSS | high polyreactivity |
| QVQLVESGGGLVQAGGSLRLSCAASGSIFGYYVMGWYRPAPGKERELVAGISYSGGRTYYADSVKGRFTISRDNAKNTVYLQMNSLQPEDTAVYYCAAEGTTSWWVKYGYWGQGTQVTVSS | low polyreactivity |
| QVQLVESGGGLVQAGGSLRLSCAASGSIFHANAMGWYRQAPGKERELVAAISQSCDTTYYADSVKGRFTISRDNAKNTVYLQMNSLKPEDTAVYYCAAEEGYGAFWYDYWGQGTQVTVSS | high polyreactivity |
| QVQLVESGGGLVQAGGSLRLSCAASGSIFHANAMGWYRQAPGKERELVAVISQGGGSTYYADSVKGRFTISRDNAKNTVYLQMNSLKPEDTAVYYCAAYYYYSAYGDDYWGQGTQVTVSS | high polyreactivity |
| QVQLVESGGGLVQAGGSLRLSCAASGSIFHDNAKGWYRQAPGKERELVAAINRGGSTHYADSVKGRFTISRDNAKNTVYLQMNSLKPEDTAVYYCNTVGRGYDYDYWGQGTQVTVSS | low polyreactivity |
| QVQLVESGGGLVQAGGSLRLSCAASGSIFHNNAMGWYRQAPGKERELVASITSRGGSTYYADSVKGRFTISRDNAKNTVYLQMNSLKPEDTAVYYCAARPYARVKTHGYWGQGTQVTVSS | low polyreactivity |
| QVQLVESGGGLVQAGGSLRLSCAASGSIFHPNAMGWYRQAPGKERELVAAITKSGGSTYYADSVKGRFTISRDNAKNTVYLQMNSLKPEDTAVYYCNALRYRRVGTLGYDYWGQGTQVTVSS | high polyreactivity |
| QVQLVESGGGLVQAGGSLRLSCAASGSIFHPYAMGWYRQAPGKERELVAAISKSGGNTYYADSVKGRFTISRDNAKNTVYLQMNSLKPEDTAVYYCAALDYWGQGTLVTVSS | low polyreactivity |
| QVQLVESGGGLVQAGGSLRLSCAASGSIFHVNAMGWYRQAPGKERELVAGISDGGSTYYADSVKGRFTISRDNAKNTVYLQMNSLKPEDTAVYYCSADDGYTYYWAGYDSWGQGTQVTVSS | low polyreactivity |
| QVQLVESGGGLVQAGGSLRLSCAASGSIFHWYVMGWYRQAPGKERELVASISWSSGSTYADSVKGRFTISRDNGKNTVYLQMNSLKPEDTAVYFCNAKTYYPPFGYWGQGTQVTVSS | low polyreactivity |
| QVQLVESGGGLVQAGGSLRLSCAASGSIFHYNTMGWYRQAPGKERELVAAITYSGGSTYYADSVKGRYTISRDNAKNPVYLQMNSLKPEDTAVYYCAVRGPGTSTYWYHEYEYWGQGTQVTVSS | high polyreactivity |
| QVQLVESGGGLVQAGGSLRLSCAASGSIFHYYTMGWYRQAPGKERELVAGISRSGTSTFYADSVKGRFTISRDNAKKTVYLQMNSLKPEDTAVSYCNAYSPGSYYYWPYDYWGQGTQVTVSS | high polyreactivity |
| QVQLVESGGGLVQAGGSLRLSCAASGSIFIFNAMVWYRQAPGKEREFVARIRRDSSTYYADSVKGRFTISRDNAKNTVYLQMNSLKPEDTAVYYCAAKRVYRRVELNSWGQGTQVTVSS | low polyreactivity |
| QVQLVESGGGLVQAGGSLRLSCAASGSIFIGYAMGWYRQAPGKERELVAAITSGGSTYADSVKGRFTISRDNAKNTVYLQMNSLKPEDTAVYYCAAPRTYYSELTSPYDYWGQGTQVTVSS | low polyreactivity |
| QVQLVESGGGLVQAGGSLRLSCAASGSIFILYAMVWYRQAPGKERELVAAISSTGTTYYADSVKGRFTISRDNAKNTVYLQMNSLKPEDTAVYYCATDEPSSGRTPYDYWGQGTQVTVSS | low polyreactivity |
| QVQLVESGGGLVQAGGSLRLSCAASGSIFINNAMGWYRQATGKERELVSAIRRGDSTTYADSVKGRFTISRDNAKNTVYLQMNSLKPEDTAVYYCATSPWWYGYAAYGMDYWGQGTQVTVSS | low polyreactivity |
| QVQLVESGGGLVQAGGSLRLSCAASGSIFIPNAMGWYRQAPGKERELVAAITSGGRTYYADSVKGRFTISRDNAKNTVYLQMNSLKPEDTAVYYCAARSGYRYVESDYWGQGTQVTVSS | high polyreactivity |
| QVQLVESGGGLVQAGGSLRLSCAASGSIFIPYAMGWYRQAPGKERDLVAAIRYSGASTYYADSVKGRFTISRDNAKNTVFLQMNSLKPEDTAVYYCAARVVDQEVGRPYYYWGQGTQVTVSS | high polyreactivity |
| QVQLVESGGGLVQAGGSLRLSCAASGSIFIQYAMGWYRQAPGKERELVAAITSGDDTYYADSVKGRFTISRDNAKNTVYLQMNSLKPEDTAVYYCAKRAHFSSARHVYYIYDYWGQGTQVTVSS | low polyreactivity |
| QVQLVESGGGLVQAGGSLRLSCAASGSIFIRYVMGWYRQAPGKERELVAAITGSGSRTYYADSVKGRFTISRDNAKNTVYLQMNSLKPEDTAVYYCAADWTKSRRYYWGQGTQVTVSS | high polyreactivity |
| QVQLVESGGGLVQAGGSLRLSCAASGSIFISYAMGWYRQAPGKESELVDAINYSGGSTYYADSVKGRFTISRDNAKNTVYLQMNSLKPEDTAVYYCAKRSTYRYYGYKLRDYWGQGTQVTVSS | low polyreactivity |

| Sequence | polyreactivity (PSR sort gate) |
| --- | --- |
| QVQLVESGGGLVQAGGSLRLSCAASGSIFITYAMGWYRQAPGKERELVAAIRDSGDRTYYADSVKGRFTISRDNAKNTVYLQMNSLKPEDTEVYYCNALWQEPLKYDYWGQGTQVTVSS | low polyreactivity |
| QVQLVESGGGLVQAGGSLRLSCAASGSIFIVNAMGWYRPAPGKERELVAAISRSGGRTYYADSVKVRFTISRDNAKNTVYLQMNSLKPEDTAVYYCNARSRARKVAYDYWGQGTQVTVSS | high polyreactivity |
| QVQLVESGGGLVQAGGSLRLSCAASGSIFIWYAMGWSRQAPGKEREFVAAITYTGTSTYYADSVKGRFTISRDNAKNTVYLQMNSLKPEDTAVYYCAADKSTHPFPSDPGYGYWGQGTQVTVSS | low polyreactivity |
| QVQLVESGGGLVQAGGSLRLSCAASGSIFIWYAMGWYRQAPGKERELVAAITSSGSTNYADSVKGRFTISRDNAKNTVYLQMNSLKPEDTAVYYCADEYTYYTYNLNYWGQGTQVTVSS | low polyreactivity |
| QVQLVESGGGLVQAGGSLRLSCAASGSIFIWYTMGWYRQAPGKERELVAAIDWNSGSTYYADSVKGRFTISRDNAKNTVYLQMNSLKPEDTAVYYCAATTFSGWFIFYYWGQGTQVTVSS | low polyreactivity |
| QVQLVESGGGLVQAGGSLRLSCAASGSIFIYYAMGWKRQAPGKERELVAAISWRGGGTYYADSVKGRFTISRDNAKNTVYLQMNSLKPEDTAVYYCAADFYDPFDYWGQGTQVTVSS | low polyreactivity |
| QVQLVESGGGLVQAGGSLRLSCAASGSIFIYYAMGWYRQAPGKERELVAAINIGGSTYYADSVKGRFTISRDNAKNTVYFQMNSLKPEDTAVYYCNAATWYRVYPYYIIFDYWGQGTQVTVSS | low polyreactivity |
| QVQLVESGGGLVQAGGSLRLSCAASGSIFKANAMGWYRQAPGKERELVATISTSSGGTYYADSVKGRFTISRDNAKNTVYLQMNSLKPEDTAVYYCAALTYPPFYWGQGTQVTVSS | high polyreactivity |
| QVQLVESGGGLVQAGGSLRLSCAASGSIFKFYAMGWYRQAPGKERELVAAISSSGTSTYYADSVKGRFTISRDNAKNTVYLQMNSLKPEDTAVYYCAARGGVQNEVKGSPYYYWGQGTQVTVSS | high polyreactivity |
| QVQLVESGGGLVQAGGSLRLSCAASGSIFKGYAMGWYRQAPGKERELVAAISIRGGSTYYADSVKGRFTISRDNAKNTVYLQMNSLKPEDTAVYYCAASSKRKYLYNYWGQGTQVTVSS | high polyreactivity |
| QVQLVESGGGLVQAGGSLRLSCAASGSIFKGYTMGWYRQAPGNERELVASMRPRGGSTYYADSVKGRFTMSRHNAKNPVDLQMNSLKPEDTAVYYCAAPWGGFAGQERKYDYWGQGTQVTVSS | low polyreactivity |
| QVQLVESGGGLVQAGGSLRLSCAASGSIFKHNAMGWYRQAPGKERELVATISESGGSTYYADSVKGRFTISRDNAKNTVYLQMNSLKPEDTAVYYCNTDYDYGWWDLGEYDYWGQGTQVTVSS | low polyreactivity |
| QVQLVESGGGLVQAGGSLRLSCAASGSIFKINAMGWYRQAPGKERELVATITWSTGTSYYADSVKGRFTISRDNAKNTVYLQMNSLKPEDTAVYYCATDGDSTKLDYWGQGTQVTVSS | low polyreactivity |
| QVQLVESGGGLVQAGGSLRLSCAASGSIFKINAMGWYRQAPWKERDFVAAITWSGGSTYYADSVKGRFTISRDNAKHTVYLQMNSLKPEDTAVYYCNARYFNYSTFGGKMGYWGQGTQVTVSS | high polyreactivity |
| QVQLVESGGGLVQAGGSLRLSCAASGSIFKINTMGWYRQAPRQERELVAAISKRGGSTYYADSVKGRFTISRDNAKITVYLQMNSLKPDDTAVYYCAAREFYKYYYWGQVTQVTVSS | high polyreactivity |
| QVQLVESGGGLVQAGGSLRLSCAASGSIFKIYAMGWYRQAHGKERELVAAISRRGSSTSYADSVKGRFTISRDNAKNTVYLQMNSLKPEDTAVYYCAARYISNPMDYWGQGTQVTVSS | high polyreactivity |
| QVQLVESGGGLVQAGGSLRLSCAASGSIFKKYAMGWYRPAPGKERELVAAITRGTYYADSVKGRFTISRDNAKNTVYLQMNSLKPEDTAVYDCNREYWGRGYYRVRGEYDYWGQGTQVSVSS | low polyreactivity |
| QVQLVESGGGLVQAGGSLRLSCAASGSIFKKYAMGWYRQAPGKERELVAAITSGGSTYYADSVKGRFTISRDNAKNTVYLQMNSLKPEDTAVYYCATYRKGSLGSWGQGTQVTVSS | high polyreactivity |
| QVQLVESGGGLVQAGGSLRLSCAASGSIFKLNAMGWYRQAPGKERELVAVINKSGGRTYYADSVKGRFTISRDNAKNTVYFQMNSLKPEDTAVYYCNAVSKLAVNLDYWGQGTQVTVSS | high polyreactivity |
| QVQLVESGGGLVQAGGSLRLSCAASGSIFKLNAMGWYRQAPGKERELVAVINKSGGRTYYADSVKGRFTISRDNAKNTVYLQMNSLKPEDTAVYFCNAVSKLAVNLDYWGQGTQVTVSS | high polyreactivity |
| QVQLVESGGGLVQAGGSLRLSCAASGSIFKPYAMGWYRQAPGKERELVAAISTRGSSTYYADSVKGRFTISRDNAKNTVYLQMNSLIPEDTAVYYCAKRRYLWGYEYDSWGQGTQVTVSS | high polyreactivity |

Reference: the nanobody polyreactivity screen of Harvey et al. (2022)
